The results in this text go back to article PMC2952836.

Assay [1] has as its target human α-thrombin (human) (UniProt P00734).
Assay [2] shares this target. The experiment in a line: kinetics of thrombin inactivation.

Consider “deglycosylated plasma heparin cofactor II (from UniProt P05546 20-499) (natural protein)”, for which the second-order rate constant of uncatalyzed thrombin inactivation (no GAG) in assay [1] was determined as 420 M⁻¹ s⁻¹. Besides, in assay [2], the K (TH,HCII), dissociation constant of ternary complex formation with heparin turned out to be 0.018 µM. Substance “native plasma heparin cofactor II (from UniProt P05546 20-499) (natural protein)” gave a K (TDS,HCII), dissociation constant of ternary complex formation with DS in assay [2] of 0.022 µM.
